In patent US20250154581A1 (BGI SHENZHEN, published 2025):

B1: Spycatcher003-MspA (other)
chain: MVTTLSGLSGEQGPSGDMTTEEDSATHIKFSKRDEDGRELAGATMELRDSSGKTISTWISDGHVKDFYLYPGKYTFVETAAPDGYEVATPIEFTVNEDGQVTVDGEATEGDAHTGGSGGSGGSGLDNELSLVDGQDRTLTVQQWDTFLNGVFPLDRNRLTREWFHSGRAKYIVAGPGADEFEGTLELGYQIGFPWSLGVGINFSYTTPNILIDDGDITAPPFGLNSVITPNLFPGVSISADLGNGPGIQEVATFSVDVSGAEGGVAVSNAHGTVTGAAGGVLLRPFARLIASTGDSVTTYGEPWNMN
notes: Subunit expressed as 6*His-Spycatcher003-MspA; also called 6*His-Spycatcher003-MspA
B2: Spytag003-DDA (enzyme)
chain: RGVPHIVMVDAYKRYKGGSGGSGGSGGSGGSGGSMTFDDLTEGQKNAFNIVMKAIKEKKHHVTINGPAGTGKTTLTKFIIEALISTGGTGIILAAPTHAAKKILSKLSGKEASTIHSILKINPVTYEENVLFEQKEVPDLAKCRVLICDEVSMYDRKLFKILLSTIPPWCTIIGIGDNKQIRPVEPGENTAYISPFFTHKDFYQCELTEVKRSNAPIIDVATDVRNGKWNYDKVVDGHGVRGFTGDTALRDFMVNYFSIVKSLDDLFENRVMAFTNKSVDKLNSIIRKKIFETDKDFIVGEIIVMQEPLFKTYKIDGKPVSEIIFNNGQLVRIIEAEYTSTFVKARGVPGEYLIRHWDLTVETYGDDEYYREKIKIISSDEELYKFNLFLAKTAETYKNWNKGGKAPWSDFWDAKSQFSKVKALPASTFHKAQGMSVDRAFIYTPCIHYADVELAQQLLYVGVTRGRYDVFYV
notes: Expressed from pET.28a(+)-6*His-Spytag003-DDA; also called 6*His-Spytag003-DDA; motor protein Spytag003-DDA

Tests used:
Strep-MspA = target: T1, Strep-MspA (Mycolicibacterium smegmatis (strain …, UniProt A0QR29 28-211)); experiment: co-expression, Strep column co-purification, nickel column imidazole gradient and ion exchange separation
T1 construct: Subunit co-expressed with 6*His-Spycatcher003-MspA; Called simply MspA where the 1:7 complex is described
Experimental: In the present application, an MspA octamer which only contains one molecule of Spycatcher003 was obtained through the following method. First, the bacterial cells co-expressing 6*His-Spycatcher003-MspA and Strep-MspA obtained in the above step 2 (2) were disrupted by high pressure (Lysis Buffer: 150 mM NaCl, 20 mM Tris, 1% DDM) and purified by Strep column (Wash Buffer: 150 mM NaCl, 20 mM Tris, 0.05% Tween 20; Elution buffer: 150 mM NaCl, 20 mM Tris, 10 mM desthiobiotin) to obtain complexes with different ratios of the two proteins. […] From this, the Spycatcher003-labeled MspA octamer was obtained.

[1] = target: T2, Spycatcher003-MspA(MspA)7 (Mycolicibacterium smegmatis (strain …, UniProt A0QR29 28-211)); experiment: mixed 1:1.2 (octamer:Spytag003-DDA), 25 C 30 min, covalent Spytag003/Spycatcher003 coupling; Superose 6 Increase size exclusion chromatography
T2 construct: Octamer of one Spycatcher003-MspA and seven Strep-MspA subunits, co-expressed in E. coli; also called Spycatcher003-labeled MspA octamer; MspA octamer formed by Spycatcher003-MspA and MspA in a ratio of 1:7
Experimental: The Spycatcher003-labeled MspA octamer obtained in the above step 4 was mixed with the Spytag003-DDA obtained in the above step 3 at a ratio of 1:1.2, and reacted at 25° C. for 30 minutes, the Superose 6 increase is used for size exclusion chromatography (Purification Buffer: 150 mM NaCl, 20 mM Tris, 0.05% Tween20) to remove excess Spytag003-DDA protein, and the DDA-Spytag/Spycatcher-MspA complex was collected.

| Binder | binding result (Strep-MspA) | binding result [1] |
| --- | --- | --- |
| B1 | binds |  |
| B2 |  | binds |
